For six molecules, Relative binding (%) with Mutant Ang2 compared to the binding with native Ang2 results are on record in patent publication US20150037343A1.

This assay has as its target FLAG-tagged Ang2 mutant A449 (alanine) (human) (UniProt O15123). In words: ELISA, scFv coated, FLAG-tagged mutant Ang2, anti-FLAG-HRP.
UniProt O15123, sequence (O15123 other isoform, or with tags, fused parts or gaps mutant): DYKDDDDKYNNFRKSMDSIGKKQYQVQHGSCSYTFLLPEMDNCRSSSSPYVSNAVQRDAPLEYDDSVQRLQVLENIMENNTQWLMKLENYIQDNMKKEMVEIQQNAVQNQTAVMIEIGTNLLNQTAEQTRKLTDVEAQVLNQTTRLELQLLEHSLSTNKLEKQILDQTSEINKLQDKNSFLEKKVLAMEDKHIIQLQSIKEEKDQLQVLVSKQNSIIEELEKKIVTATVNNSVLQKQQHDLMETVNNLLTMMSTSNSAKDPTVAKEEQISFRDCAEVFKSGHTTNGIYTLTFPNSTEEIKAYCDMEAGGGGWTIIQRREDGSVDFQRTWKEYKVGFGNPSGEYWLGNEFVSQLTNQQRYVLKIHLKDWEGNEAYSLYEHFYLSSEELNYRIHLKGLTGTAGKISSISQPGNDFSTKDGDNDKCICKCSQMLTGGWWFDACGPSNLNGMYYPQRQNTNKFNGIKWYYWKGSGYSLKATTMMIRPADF

B1: SAIT-ANG2-AB-2-E6 (scFv form) (scFv, V domains shown)
VH: EVQLLESGGGLVQTGGSLRLSCAASGFTFSDYAMSWVRQAPGKGLEWVSAIYPDSGNKYYADSVKGRFTISRDNSKNTLYLQMNSLRAEDTAVYYCARHSSDPKVKSGYYDDGMDVWGQGTLVAVSS
VL: QSVLTQPPSASGTPGQRVTISCSGSSSNIGNNAVNWYQQLPGTAPKLLIYADSNRPSGVPDRFSGSKSGTSASLAISGLRSEDEADYYCGSWDYSLSGYVFGGGTKLTVLG
On to B1, for which the Relative binding (%) with Mutant Ang2 compared to the binding with native Ang2 was found to be 3.3%.

B2: SAIT-ANG2-AB-3-D3 (scFv form) (scFv, V domains shown)
VH: EVQLLESGGGLVQPGGSLRLSCAASGFTFSDYDMSWVRQAPGKGLEWVSGISSDDGNTYYADSVKGRFTISRDNSKNTLYLQMNSLRAEDTAVYYCARPTIDKYTLRGYYSYGMDVWGQGTLVTVSS
VL: QSVLTQPPSASGTPGQRVTISCTGSSSNIGSNYVSWYQQLPGTAPKLLIYSDNKRPSGVPDRFSGSKSGTSASLAISGLRSEDEADYYCGTWDDSLNGYVFGGGTKLTVLG
In the case of B2, the Relative binding (%) with Mutant Ang2 compared to the binding with native Ang2 came out at 101%.

B3: SAIT-ANG2-AB-4-C11 (scFv form) (scFv, V domains shown)
VH: EVQLLESGGGLVQPGGSLRLSCAASGFTFSDYAMSWVRQAPGKGLEWVSSIYPDDGNTYYADSVKGRFTISRDNSKNTLYLQMNSLRAEDTAVYYCARHTSHHTSIDGYYYYGMDGWGQGTLVTVSS
VL: QSVLTQPPSASGTPGQRVTISCTGSSSNIGNNDVSWYQQLPGTAPKLLIYSDSKRPSGVPDRFSGSKSGTSASLAISGLRSEDEADYYCGSWDYSLSGYVFGGGTKLTVLG
Molecule B3 registered a Relative binding (%) with Mutant Ang2 compared to the binding with native Ang2 of 4.8%.

B4: SAIT-ANG2-AB-4-F5 (scFv form) (scFv, V domains shown)
VH: EVQLLESGGGLVQPGGSLRLSCAASGFTFSDYDMSWVRQAPGKGLEWVSSISHGDSNKYYADSVKGRFTISRDNSKNTLYLQMNSLRAEDTAVYYCAKSSGIQESPPTYYYYGMDVWGQGTLVTVSS
VL: QSVLTQPPSASGTPGQRVTISCSGSSSNIGSNAVNWYQQLPGTAPKLLIYADSNRPSGVPDRFSGSKSGTSASLAISGLRSEDEADYYCGSWDYSLSGYVFGGGTKLTVLG
In turn, B4 came in with a Relative binding (%) with Mutant Ang2 compared to the binding with native Ang2 of 14%.

B5: SAIT-ANG2-AB-7-C9 (scFv form) (scFv, V domains shown)
VH: EVQLLESGGGLVQPGGSLRLSCAASGFTFSNYAMSWVRQAPGKGLEWVSAISSGGGNIYYADSVKGRFTISRDNSKNTLYLQMNSLRAEDTAVYYCAKSGIQPSPPSMSSAYAMDVWGQGTLVTVSS
VL: QSVLTQPPSASGTPGQRVTISCSGSSSNIGNNDVYWYQQLPGTAPKLLIYANSHRPSGVPDRFSGSKSGTSASLAISGLRSEDEADYYCGTWDYSLSGYVFGGGTKLTVLG
Turning to B5, the Relative binding (%) with Mutant Ang2 compared to the binding with native Ang2 was 14.5%.

B6: SAIT-ANG2-AB-4-F11 (scFv form) (scFv, V domains shown)
VH: EVQLLESGGGLVQTGGSLRLSCAASGFTFSDYAMSWVRQAPGKGLEWVSSIYPDDGNTYYADSVKGRFTISRDNSKNTLYLQMNSLRAEDTAVYYCAKHPVRLNLHPMYYYYGMDVWGQGTLVTVSS
VL: QSVLTQPPSASGTPGQRVTISCTGSSSNIGNNAVSWYQQLPGTAPKLLIYSDSQRPSGVPDRFSGSKSGTSASLAISGLRSEDEADYYCATWDYSLSAYVFGGGTKLTVLG
With B6, the Relative binding (%) with Mutant Ang2 compared to the binding with native Ang2 amounted to 16.7%.
